Results taken from US20180256645A1.

Molecular target: murine/mouse full length CXCR6 (chemokine receptor 6), expressed on transduced murine CD8+ T cells (murine/mouse) (UniProt Q9EQ16)
Experiment: cell-based or functional assay

UniProt Q9EQ16, sequence (Q9EQ16 1-350): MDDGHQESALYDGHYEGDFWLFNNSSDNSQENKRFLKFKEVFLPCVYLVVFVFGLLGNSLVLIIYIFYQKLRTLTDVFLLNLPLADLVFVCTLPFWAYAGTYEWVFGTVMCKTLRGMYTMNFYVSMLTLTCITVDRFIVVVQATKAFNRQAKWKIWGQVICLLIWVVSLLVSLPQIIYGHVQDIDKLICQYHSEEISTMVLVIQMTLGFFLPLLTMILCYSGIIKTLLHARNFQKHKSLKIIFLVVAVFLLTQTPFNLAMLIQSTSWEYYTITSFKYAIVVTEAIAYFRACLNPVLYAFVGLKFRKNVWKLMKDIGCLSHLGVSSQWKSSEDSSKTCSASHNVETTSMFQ

- internalisation and recycling of CXCR6 (live confocal fluorescence microscopy): 30 min
Substance: recombinant CXCL16 (SEQ ID NO: 9) (Peprotech, Hamburg) (from UniProt Q8BSU2 27-114) (ligand)
